Data published in US20250136688A1 (Janssen / Centocor, published 2025).

Key:
[1] = biological target: T1, human GUCY2C (human, UniProt P25092 24-1073); test: cell-based or functional assay
[2] = biological target: T1, human GUCY2C; test: flow cytometry on T84 cells, 1 hour at 37 °C
[3] = biological target: T2, Human CD3 epsilon (human, UniProt P07766 23-207); test: flow cytometry on primary T cells, 1 hour at 37 °C
T2 construct: Stood on human T cells (pan-T cells, isolated donor T cells) as part of the TCR/CD3 complex; the other chains of the complex are not written here; also called CD3ε; CD3R
T2 sequence (P07766 23-207 limits assumed): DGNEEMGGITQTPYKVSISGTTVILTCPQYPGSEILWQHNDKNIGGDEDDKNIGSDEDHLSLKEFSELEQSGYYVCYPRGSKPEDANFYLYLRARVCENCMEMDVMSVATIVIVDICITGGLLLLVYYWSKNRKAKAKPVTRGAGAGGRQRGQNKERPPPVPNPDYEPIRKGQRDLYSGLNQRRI

[4] = biological target: T3, cynomolgus monkey CD3 (cynomolgus monkey, UniProt Q95LI5 22-198); test: not described
T3 construct: whole, on cells; also called cyno CD3; NHP CD3
T3 sequence (Q95LI5 22-198): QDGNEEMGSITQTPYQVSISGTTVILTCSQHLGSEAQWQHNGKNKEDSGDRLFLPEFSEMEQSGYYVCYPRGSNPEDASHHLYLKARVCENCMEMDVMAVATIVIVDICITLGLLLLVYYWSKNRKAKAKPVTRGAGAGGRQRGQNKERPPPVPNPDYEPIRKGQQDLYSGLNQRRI

T1 sequence (P25092 24-1073): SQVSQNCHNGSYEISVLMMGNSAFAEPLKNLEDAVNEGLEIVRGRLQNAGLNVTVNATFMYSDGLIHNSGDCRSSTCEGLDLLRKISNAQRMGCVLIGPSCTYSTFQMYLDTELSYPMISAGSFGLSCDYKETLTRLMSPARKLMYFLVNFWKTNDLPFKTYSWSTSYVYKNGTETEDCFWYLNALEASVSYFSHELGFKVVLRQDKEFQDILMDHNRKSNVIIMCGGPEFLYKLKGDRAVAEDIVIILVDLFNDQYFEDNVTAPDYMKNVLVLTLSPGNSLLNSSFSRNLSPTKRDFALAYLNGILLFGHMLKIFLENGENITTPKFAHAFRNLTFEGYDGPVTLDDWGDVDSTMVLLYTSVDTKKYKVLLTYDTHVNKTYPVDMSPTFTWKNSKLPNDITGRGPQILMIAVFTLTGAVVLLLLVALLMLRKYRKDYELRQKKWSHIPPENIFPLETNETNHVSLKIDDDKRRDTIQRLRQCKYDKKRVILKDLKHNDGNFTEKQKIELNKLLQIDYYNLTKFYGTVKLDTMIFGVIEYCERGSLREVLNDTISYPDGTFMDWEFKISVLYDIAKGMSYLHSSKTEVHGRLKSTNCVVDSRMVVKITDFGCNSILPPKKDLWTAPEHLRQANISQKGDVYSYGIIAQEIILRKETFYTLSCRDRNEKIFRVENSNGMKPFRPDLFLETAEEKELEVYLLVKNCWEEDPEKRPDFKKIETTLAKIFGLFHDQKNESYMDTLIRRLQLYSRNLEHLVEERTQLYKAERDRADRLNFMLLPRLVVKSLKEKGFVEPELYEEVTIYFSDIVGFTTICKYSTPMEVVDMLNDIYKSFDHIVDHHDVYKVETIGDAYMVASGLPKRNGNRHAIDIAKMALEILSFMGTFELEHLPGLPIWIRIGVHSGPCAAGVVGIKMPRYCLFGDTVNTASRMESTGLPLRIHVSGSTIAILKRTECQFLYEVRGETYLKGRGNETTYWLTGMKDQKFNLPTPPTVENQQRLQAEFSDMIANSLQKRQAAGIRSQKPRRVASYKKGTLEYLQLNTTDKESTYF

B1: GUCY2C×CD3_biAb-1 (bispecific antibody, human IgG1, kappa, L234A L235A)
heavy: QVQLQESGPGLVKPSETLSLTCTVSGASISHYYWSWIRRPAGKGLEWIGRIYTSGSTNYNPSLKSRVTVSVDTSKNQFSLKLSSVTAADTAVYYCARDRYTGYFDLWGRGTLVTVSSASTKGPSVFPLAPSSKSTSGGTAALGCLVKDYFPEPVTVSWNSGALTSGVHTFPAVLQSSGLYSLSSVVTVPSSSLGTQTYICNVNHKPSNTKVDKKVEPKSCDKTHTCPPCPAPEAAGGPSVFLFPPKPKDTLMISRTPEVTCVVVSVSHEDPEVKFNWYVDGVEVHNAKTKPREEQYNSTYRVVSVLTVLHQDWLNGKEYKCKVSNKALPAPIEKTISKAKGQPREPQVYTLPPSREEMTKNQVSLSCAVKGFYPSDIAVEWESNGQPENNYKTTPPVLDSDGSFFLVSKLTVDKSRWQQGNVFSCSVMHEALHNRFTQKSLSLSPGK
light: not shown
chain: EIVLTQSPATLSASPGERVTLSCSASSSVSYMNWYQQKPGCAPRRWIYDSSKLASGVPARFSGSGSGRDYTLTISSLEPEDFAVYYCQQWSRNPPTFGGGTKVEIKGGGSGGSGGCPPCGGSGGQVQLVQSGAEVKKPGSSVKVSCKASGYTFTRSTMHWVKQAPGQGLEWIGYINPSSAYTNYNQKFQGRVTLTADKSTSTAYMELSSLRSEDTAVYYCASPQVHYDYAGFPYWGCGTLVTVSSEPKSSDKTHTCPPCPAPEAAGGPSVFLFPPKPKDTLMISRTPEVTCVVVSVSHEDPEVKFNWYVDGVEVHNAKTKPREEQYNSTYRVVSVLTVLHQDWLNGKEYKCKVSNKALPAPIEKTISKAKGQPREPQVYTLPPSREEMTKNQVSLWCLVKGFYPSDIAVEWESNGQPENNYKTTPPVLDSDGSFFLYSKLTVDKSRWQQGNVFSCSVMHEALHNHYTQKSLSLSPGK
notes: HC2 = CD3_spFv-1-Fc (knob); IgG1 with L234A/L235A/D265S; also called GUCY2CxCD3 bisp-Ab1; GUCY2C-CD3-bisp-Ab1
Tumor killing EC50 (nM), HT-55 [1]: 0.8 nM | Tumor killing EC50 (nM), LS1034 [1]: 0.04 nM | EC50 [2]: 12 nM | EC50 [3]: 108 nM | binding result [4]: no binding
